Experimental data as given in IntAct's records for PubMed 12713445.

Experiments:
dlg2_human DLG2 = dlg2_human DLG2 (UniProt Q15700)
dlg3_human DLG3 = dlg3_human DLG3 (UniProt Q92796)
Chain of UniProt Q92796 (Q92796 whole entry): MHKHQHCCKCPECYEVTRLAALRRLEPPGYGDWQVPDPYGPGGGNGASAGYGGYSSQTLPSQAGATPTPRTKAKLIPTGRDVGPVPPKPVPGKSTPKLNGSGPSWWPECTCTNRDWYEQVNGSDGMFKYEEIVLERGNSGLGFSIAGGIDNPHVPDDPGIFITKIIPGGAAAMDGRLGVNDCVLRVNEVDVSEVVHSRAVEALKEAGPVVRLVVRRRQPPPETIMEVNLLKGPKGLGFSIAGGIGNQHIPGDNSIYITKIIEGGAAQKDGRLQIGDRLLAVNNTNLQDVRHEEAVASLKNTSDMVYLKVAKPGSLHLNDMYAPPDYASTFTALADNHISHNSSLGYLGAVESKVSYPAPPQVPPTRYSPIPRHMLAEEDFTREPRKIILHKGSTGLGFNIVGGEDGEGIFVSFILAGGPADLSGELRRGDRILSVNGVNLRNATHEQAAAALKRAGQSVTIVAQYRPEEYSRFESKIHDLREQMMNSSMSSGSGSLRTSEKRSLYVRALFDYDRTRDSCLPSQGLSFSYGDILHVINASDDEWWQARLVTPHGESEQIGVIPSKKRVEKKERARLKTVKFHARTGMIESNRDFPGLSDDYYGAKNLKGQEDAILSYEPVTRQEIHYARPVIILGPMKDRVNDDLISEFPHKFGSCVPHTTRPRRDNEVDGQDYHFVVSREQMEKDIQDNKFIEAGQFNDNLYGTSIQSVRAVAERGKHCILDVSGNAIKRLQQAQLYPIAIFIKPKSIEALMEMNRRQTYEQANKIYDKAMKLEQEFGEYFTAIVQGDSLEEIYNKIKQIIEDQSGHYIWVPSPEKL

Chain of UniProt Q15700 (Q15700 whole entry, looked up): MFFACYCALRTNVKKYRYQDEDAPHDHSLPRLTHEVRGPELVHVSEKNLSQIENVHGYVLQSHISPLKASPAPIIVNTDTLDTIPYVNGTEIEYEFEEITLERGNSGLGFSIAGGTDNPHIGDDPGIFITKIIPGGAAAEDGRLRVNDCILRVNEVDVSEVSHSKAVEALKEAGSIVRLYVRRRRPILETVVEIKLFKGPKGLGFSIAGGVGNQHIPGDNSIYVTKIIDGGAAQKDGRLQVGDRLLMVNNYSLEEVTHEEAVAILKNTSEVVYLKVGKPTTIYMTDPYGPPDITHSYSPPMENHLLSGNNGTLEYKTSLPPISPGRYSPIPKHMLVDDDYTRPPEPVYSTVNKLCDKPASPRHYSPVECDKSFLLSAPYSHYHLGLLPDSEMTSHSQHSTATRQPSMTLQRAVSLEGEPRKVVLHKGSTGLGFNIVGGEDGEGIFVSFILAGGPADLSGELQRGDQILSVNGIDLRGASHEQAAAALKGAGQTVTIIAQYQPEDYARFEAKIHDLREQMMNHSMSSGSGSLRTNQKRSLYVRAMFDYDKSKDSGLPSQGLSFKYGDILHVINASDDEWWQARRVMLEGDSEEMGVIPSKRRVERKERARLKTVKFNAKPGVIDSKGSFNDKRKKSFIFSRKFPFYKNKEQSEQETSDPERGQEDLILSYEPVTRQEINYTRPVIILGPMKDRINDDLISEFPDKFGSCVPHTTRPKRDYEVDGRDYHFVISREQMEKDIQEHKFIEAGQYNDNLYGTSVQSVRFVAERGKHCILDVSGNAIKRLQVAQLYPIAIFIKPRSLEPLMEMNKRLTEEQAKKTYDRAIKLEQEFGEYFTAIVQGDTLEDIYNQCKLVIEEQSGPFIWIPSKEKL

For “Low-density lipoprotein receptor-related protein 2 (Homo sapiens), P98164 S4653V;V4655S”, the “effect of a mutation on the interaction” value (dlg2_human DLG2) was “disrupting interaction strength” and the “effect of a mutation on the interaction” value (dlg3_human DLG3) was “disrupting interaction strength”.
